Values quoted from earlier work as cited in article PMC3212873.
“And” between values parts separate entries of the source, which are not always exact repeats. Identical values can stand only once.

Tests used:
[1] = target: T1, Cys32 (UniProt position 33, FWAEWCGPCKM); assay: NMR; conditions: reduced Trx-(SH)2, no protein ligand
[2] = target: T1, Cys32; assay: Raman; conditions: reduced Trx-(SH)2, no protein ligand
[3] = target: T2, Cys35 (UniProt position 36, EWCGPCKMIAP); assay: Raman; conditions: reduced Trx-(SH)2, no protein ligand
[4] = target: T1, Cys32; assay: UV-vis; conditions: reduced Trx-(SH)2, no protein ligand
[5] = target: T2, Cys35; assay: UV-vis; conditions: reduced Trx-(SH)2, no protein ligand
[6] = target: T1, Cys32; assay: fluorescence; conditions: reduced Trx-(SH)2, no protein ligand
[7] = target: T1, Cys32; assay: chemical modification; conditions: reduced Trx-(SH)2, no protein ligand
[8] = target: T2, Cys35; assay: chemical modification; conditions: reduced Trx-(SH)2, no protein ligand
[9] = target: Cys32 (UniProt position 33, FWAEWCPYCKM); conditions: reduced variant

Question: With “Thioredoxin 1 (EcTrx) (Escherichia coli)” as the substance, how does the pKa [1] read?
Answer: 7.4 and 7.0-7.1 and 7.5 or 9.2

Question: What about the pKa [2] of the same substance?
Answer: 7.1

Question: And the pKa [3]?
Answer: 7.9

Question: What about the pKa [4] of the same substance?
Answer: 9-10

Question: And the pKa [5]?
Answer: 9-10

Question: And the pKa [6]?
Answer: 6.28

Question: And the pKa [7]?
Answer: 6.7

Question: What about the pKa [8] of the same substance?
Answer: 9.0

Question: With “Thioredoxin 1, glutaredoxin-like active-site variant (Grx-like EcTrx, CPYC) (Escherichia coli; G33P;P34Y)” as the substance, how does the pKa [9] read?
Answer: 5.9
